{"source": "paper PMC9352680", "about": "“A comprehensive thermodynamic model for RNA binding by the Saccharomyces cerevisiae Pumilio protein PUF4”", "data": [{"target": "T1, PUF4 RNA-binding domain (Saccharomyces cerevisiae, UniProt P25339 537-888)", "T1 sequence": "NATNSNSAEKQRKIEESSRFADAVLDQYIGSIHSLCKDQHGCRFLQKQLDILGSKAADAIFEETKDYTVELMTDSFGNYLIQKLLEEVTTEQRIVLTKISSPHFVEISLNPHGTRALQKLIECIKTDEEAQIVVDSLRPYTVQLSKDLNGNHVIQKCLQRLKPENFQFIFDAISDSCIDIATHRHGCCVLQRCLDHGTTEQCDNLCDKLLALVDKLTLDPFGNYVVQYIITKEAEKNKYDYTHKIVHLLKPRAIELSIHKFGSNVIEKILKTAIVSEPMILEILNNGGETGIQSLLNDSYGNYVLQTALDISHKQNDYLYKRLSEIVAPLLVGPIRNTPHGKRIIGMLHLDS", "assay": "Mg; RNA-MaP; 20 mM Na-HEPES pH 7.4, 30 mM KOAc, 0.75 mM MgCl2, 0.1% Tween-20, 5% glycerol, 0.1 mg/mL BSA, 2 mM DTT; 25 C; 0.0125-409.6 nM protein", "conditions": "tags: N-His6-TEV cleaved; C-SNAP kept, Cy3B-labelled; label: tethered on chip by stalled RNA polymerase", "units": {"Kd": "nM"}, "values": [{"binder": "UCUCUUUGUAAUCCCUCUCUU (ssRNA)", "note": "[Ic_S1_P4E.1_K4.1_C4.1_H4.1_A4.1_[T5A]_[A6T]_[T7C]_F4.1_[T8C]_[A9C]_T4.1]", "Kd": 1070}, {"binder": "UCUCUUUGUAUCUAUCUCUU (ssRNA)", "note": "[Ic_S1_P3E.1_K3.1_C3.1_H3.1_A3.1_[A6C]_F3.1_T3.1]", "Kd": 48.6}, {"binder": "UCUCUUUGUAAUCGAUCUCUU (ssRNA)", "note": "[Ic_S1_P4E.1_K4.1_C4.1_H4.1_A4.1_[T5A]_[A6T]_[T7C]_F4.1_[T8G]_T4.1]", "Kd": 1160}, {"binder": "UCUCUUUGUAACAUGUCUCUU (ssRNA)", "note": "[Ic_S1_P4E.1_K4.1_C4.1_H4.1_A4.1_[T5A]_[A6C]_[T7A]_F4.1_[A9G]_T4.1]", "Kd": 12}, {"binder": "UCUCUUUGUAACCCUUCUCUU (ssRNA)", "note": "[Ic_S1_P4E.1_K4.1_C4.1_H4.1_A4.1_[T5A]_[A6C]_[T7C]_F4.1_[T8C]_[A9T]_T4.1]", "Kd": 727}, {"binder": "UCUCUUUGUAAUCUUUCUCUU (ssRNA)", "note": "[Ic_S1_P4E.1_K4.1_C4.1_H4.1_A4.1_[T5A]_[A6T]_[T7C]_F4.1_[A9T]_T4.1]", "Kd": 56.3}, {"binder": "UCUCUUUGUAACGAUUCUCUU (ssRNA)", "note": "[Ic_S1_P4E.1_K4.1_C4.1_H4.1_A4.1_[T5A]_[A6C]_[T7G]_F4.1_[T8A]_[A9T]_T4.1]", "Kd": 884}, {"binder": "UCUCUUUGUAACUACUCUCUU (ssRNA)", "note": "[Ic_S1_P4E.1_K4.1_C4.1_H4.1_A4.1_[T5A]_[A6C]_F4.1_[T8A]_[A9C]_T4.1]", "Kd": 422}, {"binder": "UCUCUUUGUAACCAGUCUCUU (ssRNA)", "note": "[Ic_S1_P4E.1_K4.1_C4.1_H4.1_A4.1_[T5A]_[A6C]_[T7C]_F4.1_[T8A]_[A9G]_T4.1]", "Kd": "> 2300"}, {"binder": "UCUCUUUGUAACCCCUCUCUU (ssRNA)", "note": "[Ic_S1_P4E.1_K4.1_C4.1_H4.1_A4.1_[T5A]_[A6C]_[T7C]_F4.1_[T8C]_[A9C]_T4.1]", "Kd": 1700}, {"binder": "UCUCUUUGUAAUACUUCUCUU (ssRNA)", "note": "[Ic_S1_P4E.1_K4.1_C4.1_H4.1_A4.1_[T5A]_[A6T]_[T7A]_F4.1_[T8C]_[A9T]_T4.1]", "Kd": 603}, {"binder": "UCUCUUUGUAACGUGUCUCUU (ssRNA)", "note": "[Ic_S1_P4E.1_K4.1_C4.1_H4.1_A4.1_[T5A]_[A6C]_[T7G]_F4.1_[A9G]_T4.1]", "Kd": 758}, {"binder": "UCUCUUUGUAACAGCUCUCUU (ssRNA)", "note": "[Ic_S1_P4E.1_K4.1_C4.1_H4.1_A4.1_[T5A]_[A6C]_[T7A]_F4.1_[T8G]_[A9C]_T4.1]", "Kd": 1150}, {"binder": "UCUCUUUGUAACGUAUCUCUU (ssRNA)", "note": "[Ic_S1_P4E.1_K4.1_C4.1_H4.1_A4.1_[T5A]_[A6C]_[T7G]_F4.1_T4.1]", "Kd": 17.3}, {"binder": "UCUCUUUGUAACACAUCUCUU (ssRNA)", "note": "[Ic_S1_P4E.1_K4.1_C4.1_H4.1_A4.1_[T5A]_[A6C]_[T7A]_F4.1_[T8C]_T4.1]", "Kd": 209}, {"binder": "UCUCUUUGUAAUGUGUCUCUU (ssRNA)", "note": "[Ic_S1_P4E.1_K4.1_C4.1_H4.1_A4.1_[T5A]_[A6T]_[T7G]_F4.1_[A9G]_T4.1]", "Kd": 105}, {"binder": "UCUCUUUGUAACUCGUCUCUU (ssRNA)", "note": "[Ic_S1_P4E.1_K4.1_C4.1_H4.1_A4.1_[T5A]_[A6C]_F4.1_[T8C]_[A9G]_T4.1]", "Kd": 726}, {"binder": "UCUCUUUGUAACUGAUCUCUU (ssRNA)", "note": "[Ic_S1_P4E.1_K4.1_C4.1_H4.1_A4.1_[T5A]_[A6C]_F4.1_[T8G]_T4.1]", "Kd": 674}, {"binder": "UCUCUUUGUAACUAGUCUCUU (ssRNA)", "note": "[Ic_S1_P4E.1_K4.1_C4.1_H4.1_A4.1_[T5A]_[A6C]_F4.1_[T8A]_[A9G]_T4.1]", "Kd": 104}, {"binder": "UCUCUUUGUAAUGCAUCUCUU (ssRNA)", "note": "[Ic_S1_P4E.1_K4.1_C4.1_H4.1_A4.1_[T5A]_[A6T]_[T7G]_F4.1_[T8C]_T4.1]", "Kd": 642}, {"binder": "UCUCUUUGUAACUUCUCUCUU (ssRNA)", "note": "[Ic_S1_P4E.1_K4.1_C4.1_H4.1_A4.1_[T5A]_[A6C]_F4.1_[A9C]_T4.1]", "Kd": 113}, {"binder": "UCUCUUUGUAAUGUCUCUCUU (ssRNA)", "note": "[Ic_S1_P4E.1_K4.1_C4.1_H4.1_A4.1_[T5A]_[A6T]_[T7G]_F4.1_[A9C]_T4.1]", "Kd": 476}, {"binder": "UCUCUUUGUAACCGAUCUCUU (ssRNA)", "note": "[Ic_S1_P4E.1_K4.1_C4.1_H4.1_A4.1_[T5A]_[A6C]_[T7C]_F4.1_[T8G]_T4.1]", "Kd": "> 2300"}, {"binder": "UCUCUUUGUGUAUCUCUCUU (ssRNA)", "note": "[Ib_S1_P3E.1_K3.1_C3.1_H3.1_[A4G]_A3.1_F3.1_[A8C]_T3.1]", "Kd": 63.7}, {"binder": "UCUCUUUGUAACAAAUCUCUU (ssRNA)", "note": "[Ic_S1_P4E.1_K4.1_C4.1_H4.1_A4.1_[T5A]_[A6C]_[T7A]_F4.1_[T8A]_T4.1]", "Kd": 111}, {"binder": "UCUCUUUGUAAUCUCUCUCUU (ssRNA)", "note": "[Ic_S1_P4E.1_K4.1_C4.1_H4.1_A4.1_[T5A]_[A6T]_[T7C]_F4.1_[A9C]_T4.1]", "Kd": 74.6}, {"binder": "UCUCUUUGUAACCAAUCUCUU (ssRNA)", "note": "[Ic_S1_P4E.1_K4.1_C4.1_H4.1_A4.1_[T5A]_[A6C]_[T7C]_F4.1_[T8A]_T4.1]", "Kd": 863}, {"binder": "UCUCUUUGUAAUGGUUCUCUU (ssRNA)", "note": "[Ic_S1_P4E.1_K4.1_C4.1_H4.1_A4.1_[T5A]_[A6T]_[T7G]_F4.1_[T8G]_[A9T]_T4.1]", "Kd": 764}, {"binder": "UCUCUUUGUAACAAGUCUCUU (ssRNA)", "note": "[Ic_S1_P4E.1_K4.1_C4.1_H4.1_A4.1_[T5A]_[A6C]_[T7A]_F4.1_[T8A]_[A9G]_T4.1]", "Kd": 1670}, {"binder": "UCUCUUUGUAACUGUUCUCUU (ssRNA)", "note": "[Ic_S1_P4E.1_K4.1_C4.1_H4.1_A4.1_[T5A]_[A6C]_F4.1_[T8G]_[A9T]_T4.1]", "Kd": 360}, {"binder": "UCUCUUUGUAAUCAUUCUCUU (ssRNA)", "note": "[Ic_S1_P4E.1_K4.1_C4.1_H4.1_A4.1_[T5A]_[A6T]_[T7C]_F4.1_[T8A]_[A9T]_T4.1]", "Kd": 413}, {"binder": "UCUCUUUGUAAUCGCUCUCUU (ssRNA)", "note": "[Ic_S1_P4E.1_K4.1_C4.1_H4.1_A4.1_[T5A]_[A6T]_[T7C]_F4.1_[T8G]_[A9C]_T4.1]", "Kd": 1820}, {"binder": "UCUCUUUGUAAUAGCUCUCUU (ssRNA)", "note": "[Ic_S1_P4E.1_K4.1_C4.1_H4.1_A4.1_[T5A]_[A6T]_[T7A]_F4.1_[T8G]_[A9C]_T4.1]", "Kd": 941}]}]}
